{
  "source": "patent US20220356229A1",
  "about": "(published 2022)",
  "data": [
    {"target": "SARS-CoV Spike protein (SARS-CoV, UniProt P59594 14-1190)", "units": {"bead binding signal (median fluorescence, fold over isotype control)": "fold over isotype control"}, "values": [
      {"binder": "antibody 349 (antibody, V domains shown) VH: EVQLVQSGAEVKKPGATVKISCKVSGYTFTDYYMHWVQQAPGKGLEWMGLVDPEDGETIYAEKFQGRVTITADTSTDTAYMELSSLRSEDTAVYYCATENKVPTIIAAAGTRDYYYYGMDVWGQGTTVTVSS VL: not shown", "bead binding signal (median fluorescence, fold over isotype control)": 1.12},
      {"binder": "antibody 343 (antibody, V domains shown) VH: QVQLVESGGDVVQPGTSLRLSCAASGFTFNNYGFHWVRQAPGKGLEWVALISSDGASTHYADSVKGRFTISRDSSVNTLYLQMNSLSLEDTAVYYCATGHCGTTCYYFDYWGQGTLVSVSS VL: DIQVTQSPSYLSASVGDRVTITCRASQTISTFLQWYQQKVGKAPKLLIYAASTLQSGVPSRFSGSGSGTDFSLTISSLQPEDFATYYCQQSYSAPLSFGGGTKVEIK", "bead binding signal (median fluorescence, fold over isotype control)": 1.19},
      {"binder": "antibody 329 (antibody, V domains shown) VH: EVQLVESGGGLVQPGGSLRLSCAASGFTFSSYWMHWVRQAPGKGLVWVSRINSDGSSTSYADSVKGRFTISRDNAKNTLYLQMNSLRAEDTAVYYCAREGIVATITLDYWGQGTLVTVSS VL: not shown", "bead binding signal (median fluorescence, fold over isotype control)": 2.46},
      {"binder": "antibody 323 (antibody, V domains shown) VH: QVQLVQSGAEVKKPGASVKVSCKVSGYTLTELSMHWVRQAPGKGLEWMGGFDPEDGETIYAQKFQGRVTMTEDTSTDTAYMELSSLRSEDTAVYYCATSTIFAPGGWFDPWGQGTLVTVSS VL: QSALTQPASVSGSPGQSITISCTGTSSDVGSYNLVSWYQQHPGKAPKLMIYEVSKRPSGVSNRFSGSKSGNTASLTISGLQAEDEADYYCCSYAGSTHYVFGTGTKVTVL", "bead binding signal (median fluorescence, fold over isotype control)": 1.29},
      {"binder": "antibody 332 (antibody, V domains shown) VH: QVTLRESGPALVKPTQTLTLTCTFSGFSLSTSGMCVSWIRQPPGKALEWLALIDWDDDKYYSTSLKTRLTISKDTSKNQVVLTMTNMDPVDTATYYCARIHDDILTGYHYVDYWGQGTLVTVSS VL: not shown", "bead binding signal (median fluorescence, fold over isotype control)": 0.99},
      {"binder": "antibody 340 (antibody, V domains shown) VH: QVQLVQSGAEVKKPGASVKVSCKASGYTFTSYDINWVRQATGQGLEWMGWMNPNSGNTGYAQKFQGRVTMTRNTSISTAYMELSSLRSEDTAVYYCARGRYCTGGVCWGDWYFDLWGRGTLVTVSS VL: QSVLTQPPSVSGAPGQRVTISCTGSSSNIGAGYDVHWYQQLPGTAPKFLIYGNSNRPSGVPDRFSGSKSGTSASLAITGLQAEDEADYYCQSYDSSLSGPVFGGGTKLTVL", "bead binding signal (median fluorescence, fold over isotype control)": 1.26},
      {"binder": "antibody 331 (antibody, V domains shown) V domain 1: QITLKESGPTLVKPTETLTLTCSFSGFSLTKTGEAAGWIRQAPGRALEWVTVIFWDDDKRYSPSLQNRISVTKDTSKNQVVLRMTNVARFDTGTYFCWAMGGPGKEYFGQGTLVAVSS V domain 2: QSVLTQPPSVSGAPGQRVTISCTGTSSSIGPYSDVHWYQHVSGKAPRLLIFGNSNRPSGVPDRFSGSKSGTSASLVIAGLQAEDEADYYCQSYDSSLGEIYVFGTGTTVTVL", "bead binding signal (median fluorescence, fold over isotype control)": 1.34},
      {"binder": "antibody 339 (antibody, V domains shown) V domain 1: QITLKESGPTLVKPTETLTLTCSFSGFSLTRTGEAAGWIRQAPGRALEWVTVIFWDDDKRYSPSLQSRLTVTKDTSKNQVVLTMTNVARFDTATYFCWAMGGPGKEYFGQGTQVAVSS V domain 2: QSVLTQPPSVSGAPGQRVTISCTGTSSSIGPYSDVHWYQHVSGKAPRLLIFGNSNRPSGVPDRFSGSKSGTSASLVIAGLQAEDEADYYCQSYDSSLGEIYVFGTGTTVTVL", "bead binding signal (median fluorescence, fold over isotype control)": 1.27},
      {"binder": "antibody 337 (antibody, V domains shown) VH: QVQLVESGGGVVQPGRSLRLSCAASGFTFSSYGMHWVRQAPGKGLEWVAIIWYDGSNKYYADSVKGRFTISRDNSKNTLYLQMNSLRAEDTAVYYCAKDTGGYCSGGSCYPESYFDYWGQGTLVTVSS VL: SYVLTQPPSVSVAPGKTARITCGGNNIGSKSVHWYQQKPGQAPVLVIYYDSDRPSGIPERFSGSNSGNTATLTINRVEAGDEADYYCQVWDGSSDHLYVFGTGTKVTVL", "bead binding signal (median fluorescence, fold over isotype control)": 439},
      {"binder": "antibody 324 (antibody, V domains shown) VH: QVQLQESGPGLVKPSGTLSLTCAVSGGSISSSNWWSWVRQPPGKGLEWIGEIYHSGSTNYNPSLKSRVTISVDNSKNQFSLKLSSVTAADTAVYYCARESVAAAGISYYYYGMDVWGQGTTVTVSS VL: EIVLTQSPGTLSLSPGERATLSCRASQSVSGRYLAWYQQKPGQAPRLLIYGASSRATGIPDRFSGSGSGTDFTLTISRLEPEDFAVYYCQHYGSSPGTFGQGTRLEIK", "bead binding signal (median fluorescence, fold over isotype control)": 1.14},
      {"binder": "antibody 328 (antibody, V domains shown) VH: QVQLQESGPGLVKPSGTLSLTCAVSGGSISSSNWWSWVRQPPGKGLEWIGEIYHSGSTNYNPSLKSRVTISVDNSKNQFSLKLSSVTAADTAVYYCARESVAAAGISYYYYGMDVWGQGTTVTVSS VL: DIQMTQSPSSLSASVGDRVTITCRASQGIRNDLGWYQQKPGKAPKRLIYAASSLQSGVPSRFSGSGSGTEFTLTVSGLQPEDFATYYCLQYNSSPLTFGGGTKVEIK", "bead binding signal (median fluorescence, fold over isotype control)": 1.22},
      {"binder": "antibody 320 (antibody, V domains shown) VH: QVQLVQSGAEVKKPGASVKVSCKASGYTFTSYGISWVRQAPGQGLEWMGWISAYNGNTNYAQKLQGRVTMTTDTSTRTAYMELRSLRSDDTAVYYCARVGCYYDSSGYSCAENFQHWGQGTLVTVSS VL: QSVLTQPPSVSGAPGQRVTISCTGSSSNIGAGYDVHWYQQLPGTAPKLLIYGNSNRPSGVPDRFSGSKSGTSASLAITGLQAEDEADYYCQSYDSSLSALFGGGTKLTVL", "bead binding signal (median fluorescence, fold over isotype control)": 989},
      {"binder": "antibody 333 (antibody, V domains shown) VH: QVHLVESGGGVVLPGRSLRLSCSASQFIFSNYDMHWVRQSPGMGLEWVAGISSDGSDKYYIDSVRGRFTISRDNAKNTLFLQMNSLTTEDTAVYSCAKGGGKFGQYWGRGTLVTVSS VL: AIQMTQSPSSLSASVGDRVTITCRASQVIRNDLAWFQQKPGEAPNLLVYSASNLQSGVPSRFSGSGSGTDFTLTISSLQPEDFATYYCLQDYSYPYTFGQGTKLDMK", "bead binding signal (median fluorescence, fold over isotype control)": 1.21},
      {"binder": "antibody 345 (antibody, V domains shown) VH: QVQLQESGPGLVKPSQTLSLTCTVSGGSISSGDYYWSWIRQPPGKGLEWIGYIYYSGSTYYNPSLKSRVTISVDTSKNQFSLKLSSVTAADTAVYYCARVGMVDNWNFEGNWFDPWGQGTLVTVSS VL: QSALTQPRSVSGSPGQSVTISCTGTSSDVGGYNYVSWYQQHPGKAPKLMIYDVSKRPSGVPDRFSGSKSGNTASLTISGLQAEDEADYYCCSYAGSVVFGGGTKLTVL", "bead binding signal (median fluorescence, fold over isotype control)": 1.09},
      {"binder": "antibody 348 (antibody, V domains shown) VH: QVQLVQSGSELKKPGASVKVSCKASGYTFTSYAMNWVRQAPGQGLEWMGWINTNTGNPTYAQGFTGRFVFSLDTSVSTAYLQISSLKAEDTAVYYCARDHELPNTSSWFGHFEYWGQGTLVTVSS VL: not shown", "bead binding signal (median fluorescence, fold over isotype control)": 1.16},
      {"binder": "antibody 342 (antibody, V domains shown) VH: EVQLVQSGAEVKKPGATVKISCKVSGYTFTDYYMHWVQQAPGKGLEWMGLVDPEDGETIYAEKFQGRVTITADTSTDTAYMELSSLRSEDTAVYYCATGGVSVWFREFPASYSGSYLGYWGQGTLVTVSS VL: not shown", "bead binding signal (median fluorescence, fold over isotype control)": 1.16}
    ]}
  ]
}
